Results reported in article PMC4933183.

Assays:
[1] = molecular target: biotinylated human IgM (human); experiment: SPR; BIAcore T100, 37 °C, HBS-EP; biotinylated human IgM on streptavidin chip (biotinylated human IgG as reference), gel-filtered monomeric DBL domains injected at 20 μl/min for 2 min to equilibrium; 1:1 Langmuir isotherm
[2] = molecular target: SPAM fragment of DBLMSP2 (3D7) (Plasmodium falciparum (3D7 strain)); experiment: SEC; size exclusion chromatography of the purified Cd4-tagged proteins; markers thyroglobulin, ferritin, aldolase, conalbumin, carbonic anhydrase
[3] = molecular target: recombinant full-length DBLMSP2 (3D7), monobiotinylated (Plasmodium falciparum (3D7 strain)); experiment: SPR; BIAcore T100, 37 °C, HBS-EP; biotinylated full-length DBLMSP or DBLMSP2 on streptavidin chip, purified human IgM injected 30 min at 10 μl/min to equilibrium; equilibrium fit to a simple Langmuir isotherm; values reflect overall binding avidity
[4] = molecular target: recombinant full-length DBLMSP (3D7), monobiotinylated (Plasmodium falciparum (3D7 strain)); experiment: as above

Substance: DBL domain of DBLMSP2 (3D7) (domain or fragment)
- Kd [1]: 600 nM

Substance: DBL domain of DBLMSP (3D7) (domain or fragment)
- Kd [1]: 60 nM

Substance: SPAM fragment of DBLMSP2 (3D7) (domain or fragment)
- stoichiometry N [2]: > 4

Substance: human IgM (natural protein)
- Kd [3]: 1.1 nM
- Kd [4]: 0.3 nM
